According to PMC3722578 (FEBS Open Bio, 2013):

Target: the molecule itself
Experiment: SEC

B1: PKD1 domain from Vibrio cholerae metalloprotease PrtV (residues Glu755-Asn839) (domain or fragment)
chain: GAMENIAPVARFELKVEGLSVMSQNTSSDSDGNIVSYLWDFGNGQTSTEAAPTWSYTKAGSYSVTLTVTDDKGDSDTHQQTIKVDTPN
- stoichiometry N: 2
